Earlier results, collected in paper PMC10518620.

Target: C3aR (Homo sapiens) (UniProt Q16581)
Sequence of UniProt Q16581 (Q16581 whole entry): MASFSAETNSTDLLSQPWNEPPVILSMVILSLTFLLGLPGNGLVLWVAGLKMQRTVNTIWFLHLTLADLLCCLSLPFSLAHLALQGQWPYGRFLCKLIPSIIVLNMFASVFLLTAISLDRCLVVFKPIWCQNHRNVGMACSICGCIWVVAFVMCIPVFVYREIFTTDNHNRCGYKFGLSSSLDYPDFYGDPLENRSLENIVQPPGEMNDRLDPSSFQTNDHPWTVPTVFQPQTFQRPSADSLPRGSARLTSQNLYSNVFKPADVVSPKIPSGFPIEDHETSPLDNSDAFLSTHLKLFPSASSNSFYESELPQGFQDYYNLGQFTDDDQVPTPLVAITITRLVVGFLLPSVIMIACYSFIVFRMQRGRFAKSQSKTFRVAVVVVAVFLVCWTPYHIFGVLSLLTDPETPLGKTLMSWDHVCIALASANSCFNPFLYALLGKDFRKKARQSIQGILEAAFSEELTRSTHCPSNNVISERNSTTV

- Kd: 1 nM
Substance: C3a C3a (from UniProt P01024)
